Data published in IntAct's records for PubMed 16946707.

B1: Dynamin-1 (Homo sapiens), Q05193 (parent)
chain: MGNRGMEDLIPLVNRLQDAFSAIGQNADLDLPQIAVVGGQSAGKSSVLENFVGRDFLPRGSGIVTRRPLVLQLVNATTEYAEFLHCKGKKFTDFEEVRLEIEAETDRVTGTNKGISPVPINLRVYSPHVLNLTLVDLPGMTKVPVGDQPPDIEFQIRDMLMQFVTKENCLILAVSPANSDLANSDALKVAKEVDPQGQRTIGVITKLDLMDEGTDARDVLENKLLPLRRGYIGVVNRSQKDIDGKKDITAALAAERKFFLSHPSYRHLADRMGTPYLQKVLNQQLTNHIRDTLPGLRNKLQSQLLSIEKEVEEYKNFRPDDPARKTKALLQMVQQFAVDFEKRIEGSGDQIDTYELSGGARINRIFHERFPFELVKMEFDEKELRREISYAIKNIHGIRTGLFTPDMAFETIVKKQVKKIREPCLKCVDMVISELISTVRQCTKKLQQYPRLREEMERIVTTHIREREGRTKEQVMLLIDIELAYMNTNHEDFIGFANAQQRSNQMNKKKTSGNQDEILVIRKGWLTINNIGIMKGGSKEYWFVLTAENLSWYKDDEEKEKKYMLSVDNLKLRDVEKGFMSSKHIFALFNTEQRNVYKDYRQLELACETQEEVDSWKASFLRAGVYPERVGDKEKASETEENGSDSFMHSMDPQLERQVETIRNLVDSYMAIVNKTVRDLMPKTIMHLMINNTKEFIFSELLANLYSCGDQNTLMEESAEQAQRRDEMLRMYHALKEALSIIGDINTTTVSTPMPPPVDDSWLQVQSVPAGRRSPTSSPTPQRRAPAVPPARPGSRGPAPGPPPAGSALGGAPPVPSRPGASPDPFGPPPQVPSRPNRAPPGVPSRSGQASPSRPESPRPPFDL
partner: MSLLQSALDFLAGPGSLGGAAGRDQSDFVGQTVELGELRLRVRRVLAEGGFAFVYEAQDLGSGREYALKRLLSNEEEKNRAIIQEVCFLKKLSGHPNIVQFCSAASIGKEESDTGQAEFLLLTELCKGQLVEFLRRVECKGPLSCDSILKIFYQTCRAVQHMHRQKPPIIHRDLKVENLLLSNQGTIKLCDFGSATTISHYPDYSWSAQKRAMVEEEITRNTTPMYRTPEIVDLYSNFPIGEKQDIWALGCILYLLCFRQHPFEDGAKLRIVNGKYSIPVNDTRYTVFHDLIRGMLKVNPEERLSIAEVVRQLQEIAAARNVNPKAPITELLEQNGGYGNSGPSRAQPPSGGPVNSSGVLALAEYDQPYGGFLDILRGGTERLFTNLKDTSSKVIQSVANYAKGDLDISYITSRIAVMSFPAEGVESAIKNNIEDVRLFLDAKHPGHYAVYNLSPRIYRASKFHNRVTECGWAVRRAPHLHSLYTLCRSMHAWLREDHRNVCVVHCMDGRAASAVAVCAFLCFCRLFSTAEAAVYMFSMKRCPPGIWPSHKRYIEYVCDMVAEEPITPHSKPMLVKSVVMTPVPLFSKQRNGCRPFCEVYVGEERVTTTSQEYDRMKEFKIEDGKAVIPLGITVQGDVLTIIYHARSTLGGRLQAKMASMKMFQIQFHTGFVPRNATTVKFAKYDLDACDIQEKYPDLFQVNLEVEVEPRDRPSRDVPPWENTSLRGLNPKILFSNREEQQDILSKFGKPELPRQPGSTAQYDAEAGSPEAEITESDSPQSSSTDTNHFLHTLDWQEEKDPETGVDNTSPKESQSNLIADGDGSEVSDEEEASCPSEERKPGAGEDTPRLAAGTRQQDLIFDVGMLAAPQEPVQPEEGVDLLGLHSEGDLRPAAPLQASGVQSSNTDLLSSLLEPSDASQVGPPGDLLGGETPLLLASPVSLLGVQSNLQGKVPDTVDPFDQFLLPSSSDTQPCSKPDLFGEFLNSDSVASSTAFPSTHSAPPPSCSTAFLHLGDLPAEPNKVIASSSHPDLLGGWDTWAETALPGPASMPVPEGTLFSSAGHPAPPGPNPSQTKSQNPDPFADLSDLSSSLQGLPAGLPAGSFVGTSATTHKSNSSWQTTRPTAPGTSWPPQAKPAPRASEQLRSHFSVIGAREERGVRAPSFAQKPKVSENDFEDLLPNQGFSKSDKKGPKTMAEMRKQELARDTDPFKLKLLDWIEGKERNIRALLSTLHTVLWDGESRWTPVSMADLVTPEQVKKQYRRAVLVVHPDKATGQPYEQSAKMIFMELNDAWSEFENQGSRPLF

Variants of: B1
Conditions: with gak_rat Gak

Variant	effect of a mutation on the interaction
I690K	disrupting interaction
K694A	increasing interaction
